Reference: the supplement of paper PMC9170038

Tested on: MS2 coat protein
Test: apparent KD of MS2 coat protein; designed switch direction (-1 OFF switch, 1 ON switch): -1; higher = weaker reporter binding
Procedure, shortened: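 RNA switches sharing common flanks were transcribed by stalled E. coli RNA polymerase on Illumina chips. A doubling series of SNAP-549-labelled MS2 coat protein, from 0.7 or 1.5 nM to 3 µM, was applied in Tris-HCl pH 7.5 buffer with KCl, MgCl2, BSA, DTT, tRNA and Tween-20. Each step lasted 0.8–1.5 h at the bottom of the series and 10–20 min at the top. Normalised cluster fluorescence was curve-fitted, giving apparent KD as the per-design median over clusters.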

[1] = Eterna round: R95, input ligand: microRNA oligo, concentration not stated
[2] = Eterna round: R95, input ligand: FMN 200 uM
[3] = Eterna round: R95, input ligand: none

Sequence	apparent KD of MS2 coat protein (input ligand: FMN 200 uM) [nM]	apparent KD of MS2 coat protein (input ligand: none) [nM]	apparent KD of MS2 coat protein [1] [nM]	apparent KD of MS2 coat protein [2] [nM]	apparent KD of MS2 coat protein [3] [nM]
GUUUAGUGAGGAUAUGUGGCUUCGAUCGUGCGCGGUCUGCUACAGAAGGCACAUGAGGAUCACCCAUGUUCCUC [salish99_ex4_r4_308] (Eterna round: R97, puzzle: Exclusion 4)	579	123	–	–	–
GUUUCACAUGAGGAUCACCCAUGUGAGGAUAUGGACUUUUUAGUAAUAAUUGUUGGGUUCAGAAGGCGCGUGAU [JR_Exc1_Sub005] (Eterna round: R97, puzzle: Exclusion 1)	53.1	44.7	–	–	–
GUUUCGUGAGGAUAUGUGGCUUCGAUCGUGCGAAGAAGGCUACAGAAGGCACAUGAGGAUCACCCAUGUUCGUC [salish99_ex4_r4_227] (Eterna round: R97, puzzle: Exclusion 4)	152	42.1	–	–	–
GUUUGACAUGAGGAUCACCCAUGUGAGGAUAUCGGCUGGUACGUGUUGGCUGGCAUCUCGAGAAGGCACAUAGG [Exclusion 1 V58] (puzzle: Exclusion 1)	–	–	109	–	–
GUUUGACAUGAGGAUCACCCAUGUGAGGAUAUCGUCUGGUACGUGUUGGCUGGCAUCUCGAGAAGGCGCAUAGG [Exclusion 1 V57] (puzzle: Exclusion 1)	–	–	49.7	75.9	64.9
GUUUGAUUAGGAUAUACAUGAGGAUCACCCAUGUGUCCCAGUUUAGAAAUAGACAAAAGUAGAAGGGAUUAGAU [Starry 2] (Eterna round: R97, puzzle: Exclusion 3)	37.8	45.8	–	–	–
GUUUGCGCAGGAUAUACUCCUCCAUGUUAAGAGCAUGUGCGACAUGAGGAUCACCCAUGUAGAAGGGCGAGACG [Eternabot (L2) Solution 8] (Eterna round: R97, puzzle: Exclusion 2)	194	345	–	–	–
GUUUUCAGACGGAGAUCCUACAUGAGGAUCACCCAUGUCUCACUUGUUUUUUGCUCGUCUUAUCCUCCUCUGUUCUC [Elimod 30 - Jieux - Sensor, turn-off variant 1] (Eterna round: R97, puzzle: Sensor, turn-off variant 1)	414	667	–	–	–
GUUUUCAGACGGAGAUCCUACAUGAGGAUCACCCAUGUCUCUCUUGUUUUUUGCUCGUCUUAUCCUCCUCUGUUCUC [Elimod 31 - Jieux - Sensor, turn-off variant 1] (Eterna round: R97, puzzle: Sensor, turn-off variant 1)	467	520	–	–	–
GUUUUGGGAGGAUAUAUGUGGAUAAUUUUUAUAUGAAAAUUACAUGAGGAUCACCCAUGUAGAAGGUCUAGAGC [-17.2, -15.1 kcal, 32% A] (Eterna round: R97, puzzle: Exclusion 2)	473	637	–	–	–
GUUUUGUGAGGAUAUCCCUAUCAUCUAGCUGACUAGAUGGUGGAGAAGGCACAUGAGGAUCACCCAUGUGGGAG [Eternabot (L1) Solution 3] (Eterna round: R97, puzzle: Exclusion 4)	111	90.1	–	–	–
UAAAAGGUAGGAUAUACGAAAAAAAAGGGUAGAAAAAAAACACAUGAGGAUCACCCAUGUAGAAGGACCAAAAU [salish99_ex2_r3_041] (puzzle: Exclusion 2)	–	–	28.6	89.7	26.9
UAAAAGUGAGGAUAUACGUGAAAUCCGCCAGGCGGAGAUCUACAUGAGGAUCACCCAUGUAGAAGGCACGGAAU [EX2 A.13] (Eterna round: R97, puzzle: Exclusion 2)	15.8	14	–	–	–
